Changes are numbered by the printed parent chain. Like-named read-outs stand apart in the source and are kept apart here.
B1: humanized 6G425 F(ab)-1 (Fab, V domains shown)
VH: EVQLVESGGGLVQPGGSLRLSCAASGYSFSSHYMHWVRQAPGKGLEWVGYIDPSNGETTYNQKFKGRFTISRDNSKNTLYLQMNSLRAEDTAVYYCARGDYRYNGDWFFDVWGQGTLVTVSS
VL: DIQMTQSPSSLSASVGDRVTITCRSSQSLVHGIGNTYLHWYQQKPGKAPKLLIYKVSNRFSGVPSRFSGSGSGTDFTLTISSLQPEDFATYYCSQSTHVPLTFGQGTKVEIKR
notes: Fab with human kappa subgroup I light chain and human IgG1 subgroup III heavy chain (vector pEMX1); also called version 1; VI
B2: humanized 6G425 F(ab)-2 (Fab, V domains shown)
VH: B1 VH with F68A
VL: B1 VL
notes: Template F(ab)-1; Fab constant parts as F(ab)-1; also called version 2
B3: humanized 6G425 F(ab)-8 (6G4.2.5V19) (Fab, V domains shown)
VH: B1 VH with R38K, I70L, L79A
VL: B1 VL
B4: humanized 6G425 F(ab)-7 (Fab, V domains shown)
VH: B1 VH with I70L, L79A, L81V
VL: B1 VL
notes: Template F(ab)-6; Fab constant parts as F(ab)-1; also called version 16
B5: humanized 6G425 F(ab)-3 (Fab, V domains shown)
VH: B1 VH with R72V
VL: B1 VL
notes: Template F(ab)-1; Fab constant parts as F(ab)-1; also called version 3

How the values were obtained:
[1] = target: T1, recombinant human IL-8, (ser-IL-8)72 (human, UniProt P10145 28-99); experiment: inhibition of 125I-IL-8 binding to human neutrophils
T1 construct: mature; radio-iodinated when used as tracer; also called human wild type IL-8; wt IL-8
T1 sequence (looked up): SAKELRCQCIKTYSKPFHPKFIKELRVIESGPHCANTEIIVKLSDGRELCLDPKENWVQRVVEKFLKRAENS

[2] = target: T1, recombinant human IL-8, (ser-IL-8)72; experiment: as above; remark: listed apart in the source
rhesus IL-8 = target: T2, rhesus IL-8 (rhesus, UniProt P67813 23-101, limits assumed); experiment: cell-based or functional assay
T2 sequence (looked up): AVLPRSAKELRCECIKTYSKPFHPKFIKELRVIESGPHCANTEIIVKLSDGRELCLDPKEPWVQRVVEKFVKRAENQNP

[3] = target: T1, recombinant human IL-8, (ser-IL-8)72; experiment: cell-based or functional assay

Row | Binder | IC50 [2] | fold decrease in IL-8 binding (against F(ab)-1) [1] | other results
1 | B1 | 63 nM |  | IC50 [1]: 40 nM; fold reduction in binding affinity (against the chimeric F(ab) of Table 4) [1]: 5.5 fold
2 | B2 | 106 nM | < 2 fold | 
3 | B3 |  |  | IC50, neutrophil chemotaxis (rhesus IL-8): 10 nM; IC50, neutrophil chemotaxis [3]: 0.12 nM
4 | B4 | 38.4 nM |  | 
5 | B5 | 79.8 nM | < 2 fold | 
